Measured values from patent publication US20240317858A1 (Adimab, published 2024).

Assays:
[1] = target: T1, Human CD3εδ Fc heterodimer (Hu CD3ε Fc + CD3δ Fc-HIS) (human, UniProt P07766 22-126; P04234 22-100); assay: BLI (Octet), Fab monovalent, pH 7.4
T1 construct: range 22-126;range 22-100; Made in HEK 293 cells with a heterologous signal peptide; also called Hu CD3εδ-Fc; CD3εδ Fc-HIS heterodimer; not shown: Fc; Fc followed by HIS tag
Protocol: (§1) ForteBio KD measurements (Biolayer interferometry; BLI). ForteBio affinity measurements were performed generally as previously described (Estep, P., et al., High throughput solution-based measurement of antibody-antigen affinity and epitope binning. MAbs, 2013. 5(2): p. 270-8.). Briefly, ForteBio affinity measurements were performed by loading IgGs or CD3εδ Fe-HIS heterodimer onto AHC sensors. Sensors were equilibrated off-line in assay buffer for 30 min and then monitored on-line for 60 seconds for baseline establishment. Sensors with loaded IgGs were exposed to 100 nM antigen (e.g., CD3) for 3 min, afterwards they were transferred to assay buffer for 10 min for off-rate measurement. Sensors loaded with CD3εδ Fe-HIS heterodimer were exposed to 100 nM anti-CD3 Fab for 3 min, afterwards they were transferred to assay buffer for 3 min or 10 min for off-rate measurement. Kinetics were analyzed using the 1:1 binding model. For measuring binding at different pHs, measurements were performed at pre-determined pHs (e.g., pH 7.4 and pH 6.0).
(§2) Anti-CD3 antibodies A001-A005, V002, V004, V007, V009, V010, V013, and V014-V019 were produced as IgG1s in CHO cells, and Fab fragments were generated from IgG1 antibodies by papain digestion and purification as described in Example 2. Human, cynomolgus, rhesus, and mouse CD3εδ Fc heterodimers were produced, and monovalent binding affinity and avidity at pH 7.4 and pH 6.0 were measured using the Octet® HTX instrument (ForteBio) as described in Example 2.

[2] = target: T2, Cynomolgus CD3εδ Fc heterodimer (Cy CD3ε Fc + CD3δ Fc-HIS) (cynomolgus, UniProt Q95LI5 22-117; Q95LI8 22-100); assay: BLI (Octet), Fab monovalent, pH 7.4
T2 construct: range 22-117;range 22-100; Made in HEK 293 cells with a heterologous signal peptide; also called Cy CD3εδ-Fc; cyno CD3εδ Fc; not shown: Fc; Fc followed by HIS tag
Protocol: as §1, §2

[3] = target: T3, Rhesus CD3εδ Fc heterodimer (rhesus); assay: BLI (Octet), Fab monovalent, pH 7.4
T3 construct: extracellular domain; also called Rh CD3εδ-Fc
Protocol: as §1, §2

[4] = target: T1, Human CD3εδ Fc heterodimer (Hu CD3ε Fc …); assay: BLI (Octet), CD3εδ Fc on AHC sensor, 100 nM Fab
Protocol: (§3) Affinity of the anti-CD3 antibodies for CD3 was determined by measuring their kinetic constants (kₒₙ, koff, KD) on ForteBio Octet®. ForteBio affinity measurements were performed generally as previously described (Estep et al., MAbs. 2013 5(2):270-8). […] Sensors were equilibrated off-line in assay buffer for 30 minutes and then monitored on-line for 60 seconds for baseline establishment. For monovalent binding measurement, sensors with loaded CD3εδ Fc were exposed to 100 nM anti-CD3 Fab, as further described in Example 2 below] for 3 minutes, afterwards they were transferred to assay buffer for 3 minutes for off-rate measurement. Kinetics data were fit using a 1:1 binding model in the data analysis software provided by ForteBio.

[5] = target: T2, Cynomolgus CD3εδ Fc heterodimer (Cy …); assay: BLI (Octet), CD3εδ Fc on AHC sensor, 100 nM Fab
Protocol: as §3

[6] = target: T1, Human CD3εδ Fc heterodimer (Hu CD3ε Fc …); assay: BLI (Octet), Fab monovalent, pH 6.0
Protocol: as §1, §2

[7] = target: T2, Cynomolgus CD3εδ Fc heterodimer (Cy …); assay: BLI (Octet), Fab monovalent, pH 6.0
Protocol: as §1, §2

[8] = target: T1, Human CD3εδ Fc heterodimer (Hu CD3ε Fc …); assay: SPR (Biacore), Fab over immobilized CD3εδ Fc, pH 6.0
Protocol: (§4) Anti-CD3 antibodies A001-A005, V002, V004, V007, V009, V010, V013, and V014-V019 were produced in CHO cells, and Fab fragments were generated from IgG1 antibodies by papain digestion and purification as described in Example 2. Monovalent binding affinity at pH 7.4 and pH 6.0 was measured via surface plasmon resonance (SPR). Briefly, human or cynomolgus CD3εδ Fe heterodimer produced as described in Example 2 was immobilized to a CM5 sensor chip in a Biacore® X100 (Cytiva, previously GE Healthcare Life Sciences) to a response level of ˜500 RUs. Fabs were then injected at 3-fold increasing concentrations, ranging from 0.74-180 nM. The sensor chip was doubly regenerated between cycles using 0.35 M EDTA and 0.1 M NaOH. The resulting data were double reference subtracted and fit to a 1:1 binding model using Biacore® Evaluation Software.

[9] = target: T2, Cynomolgus CD3εδ Fc heterodimer (Cy …); assay: as above
Protocol: as §4

[10] = target: T1, Human CD3εδ Fc heterodimer (Hu CD3ε Fc …); assay: SPR (Biacore), Fab over immobilized CD3εδ Fc, pH 7.4
Protocol: as §4

[11] = target: T2, Cynomolgus CD3εδ Fc heterodimer (Cy …); assay: as above
Protocol: as §4

T2 sequence (Q95LI5 22-117, stated change not applied, form in doubt, chain 1 of 2): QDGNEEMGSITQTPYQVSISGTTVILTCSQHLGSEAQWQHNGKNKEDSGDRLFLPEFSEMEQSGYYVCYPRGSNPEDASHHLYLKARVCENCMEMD
T2 sequence (Q95LI8 22-100, stated change not applied, form in doubt, chain 2 of 2): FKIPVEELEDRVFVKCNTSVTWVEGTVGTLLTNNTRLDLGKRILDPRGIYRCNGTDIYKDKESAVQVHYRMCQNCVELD
T1 sequence (P07766 22-126, stated change not applied, form in doubt, chain 1 of 2): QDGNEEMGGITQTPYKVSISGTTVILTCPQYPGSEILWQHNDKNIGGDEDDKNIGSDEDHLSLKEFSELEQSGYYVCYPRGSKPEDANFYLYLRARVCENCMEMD
T1 sequence (P04234 22-100, stated change not applied, form in doubt, chain 2 of 2): as the sequence (Q95LI8 22-100, stated change not applied, form in doubt, chain 2 of 2) above, with V5I, K15N, V20I, T32S, N33D, N34I, A64T, N74S counted along it

Kd [1] [nM]	Kd [2] [nM]	Kd [3] [nM]	Kd [4] [nM]	Kd [5] [nM]	Kd [6] [nM]	Kd [7] [nM]	Kd [8] [nM]	Kd [9] [nM]	Kd [10] [nM]	Kd [11] [nM]	Binder
13	12	15	7.84	7.33	8.8	8	4.2	3.3	–	–	Antibody No. V002 (ADI-67445) Fab (Fab, V domains shown, Fab by papain digestion of the IgG1) VH: QVQLVQSGAEVKKPGASVKVSCKASGFNIKDYYMHWVRQAPGQRLEWMGWIDLENAETIYDAKFQDRVTITRDTSASTAYMELSSLRSEDTAVYYCARDAYGRYFYDEWGQGTLVTVSS VL: DIVMTQSPDSLAVSLGERATINCKSSQSLLNARTGKNYLAWYQQKPGQPPKLLIYWASTRESGVPDRFSGSGSGTDFTLTISSLQAEDVAVYYCKQSYSRRTFGGGTKVEIK
37	28	29	–	–	33	17	31	29	42	36	Antibody No. V018 (ADI-76361) Fab (Fab, V domains shown, Fab by papain digestion of the IgG1) VH: QVQLVQSGAEVKKPGASVKVSCKASGFDIKDYYMHWVRQAPGQRLEWMGWIDLEEGNTIYDAKFQGRVTITRDTSASTAYMELSSLRSEDTAVYYCARDAYGRYFYDVWGQGTLVTVSS VL: DIVMTQSPDSLAVSLGERATINCKSSQSLLNARTGKNYLAWYQQKPGQPPKLLIYWASTRESGVPDRFSGSGSGTDFTLTISSLQAEDVAVYYCKQSYSLRTFGGGTKVEIK
77	75	87	–	–	37	49	22	23	14	16	Antibody No. V016 (ADI-76359) Fab (Fab, V domains shown, Fab by papain digestion of the IgG1) VH: QVQLVQSGAEVKKPGASVKVSCKASGFDIKDYYMHWVRQAPGQRLEWMGWIDLENANTIYDAKFQGRVTITRDTSASTAYMELSSLRSEDTAVYYCGRDAYGRYFYDVWGQGTLVTVSS VL: DIVMTQSPDSLAVSLGERATINCKSSQSLLNARTGKNYLAWYQQKPGQPPKLLIYWASTRESGVPDRFSGSGSGTDFTLTISSLQAEDVAVYYCKQSYSLRTFGGGTKVEIK
–	–	–	4.57	4.18	–	–	–	–	–	–	Antibody No. V003 (ADI-67446) Fab (Fab, V domains shown, Fab by papain digestion of the IgG1) VH: QVQLVQSGAEVKKPGASVKVSCKASGFDIKDYYMHWVRQAPGQRLEWMGWIELENADTIYDAKFQGRVTITRDTSASTAYMELSSLRSEDTAVYYCARDAYGRYFYDVWGQGTLVTVSS VL: DIVMTQSPDSLAVSLGERATINCKSSQSLLNARTGKNYLAWYQQKPGQPPKLLIYWASTRESGVPDRFSGSGSGTDFTLTISSLQAEDVAVYYCKQSYSRRTFGGGTKVEIK
1.6	1.9	1.8	0.81	0.81	1.2	1.6	1.1	0.24	0.14	0.15	Antibody No. V009 (ADI-70326) Fab (Fab, V domains shown, Fab by papain digestion of the IgG1) VH: QVQLVQSGAEVKKPGASVKVSCKASGFDIKDYYMHWVRQAPGQRLEWIGWIELENADTVYDAKFQGRVTITRDTSASTAYMELSSLRSEDTAVYYCARDAYGRYFYDVWGQGTLVTVSS VL: DIVMSQSPDSLAVSLGERATINCKSSQSLLNARTGKNYLAWYQQKPGQPPKLLIYWASTRSSGVPDRFSGSGSGTDFTLTISSLQAEDVAVYYCVQSYFRRTFGGGTKVEIK
–	–	–	1.65	1.64	–	–	–	–	–	–	Antibody No. V012 (ADI-70329) Fab (Fab, V domains shown, Fab by papain digestion of the IgG1) VH: QVQLVQSGAEVKKPGASVKVSCKASGFNDKDYYMHWVRQAPGQRLEWIGWIDLENAETVYDAKFQDRVTITRDTSASTAYMELSSLRSEDTAVYYCARDAYGRYFYDVWGQGTLVTVSS VL: DIVMSQSPDSLAVSLGERATINCKSSQSLLNARTGKNYLAWYQQKPGQPPKLLIYWASTRSSGVPDRFSGSGSGTDFTLTISSLQAEDVAVYYCVQSYFRRTFGGGTKVEIK

The next lines start with the binder.

Binder	Kd [1] [nM]	Kd [2] [nM]	Kd [3] [nM]	Kd [4] [nM]	Kd [5] [nM]	Kd [6] [nM]	Kd [7] [nM]	Kd [8] [nM]	Kd [9] [nM]	Kd [10] [nM]	Kd [11] [nM]
Antibody No. V005 (ADI-67448) Fab (Fab, V domains shown, Fab by papain digestion of the IgG1; VH as printed is identical to that of V004) VH: QVQLVQSGAEVKKPGASVKVSCKASGFNIDDYYMHWVRQAPGQRLEWMGWIDLENDNTIYDAKFQGRVTITRDTSASTAYMELSSLRSEDTAVYYCARDAYGRYFYDVWGQGTLVTVSS VL: DIVMTQSPDSLAVSLGERATINCKSSQSLLNARTGKNYLAWYQQKPGQPPKLLIYWASTRESGVPDRFSGSGSGTDFTLTISSLQAEDVAVYYCKQSYSRRTFGGGTKVEIK	–	–	–	6.98	6.06	–	–	–	–	–	–
Antibody No. V006 (ADI-67449) Fab (Fab, V domains shown, Fab by papain digestion of the IgG1) VH: QVQLVQSGAEVKKPGASVKVSCKASGFNDKDYYMHWVRQAPGQRLEWMGWIDLENAETIYDAKFQDRVTITRDTSASTAYMELSSLRSEDTAVYYCARDAYGRYFYDVWGQGTLVTVSS VL: DIVMTQSPDSLAVSLGERATINCKSSQSLLNARTGKNYLAWYQQKPGQPPKLLIYWASTRESGVPDRFSGSGSGTDFTLTISSLQAEDVAVYYCKQSYSRRTFGGGTKVEIK	–	–	–	7.97	8.15	–	–	–	–	–	–
Antibody No. V008 (ADI-70325) Fab (Fab, V domains shown, Fab by papain digestion of the IgG1) VH: QVQLVQSGAEVKKPGASVKVSCKASGFNIKDYYMHWVRQAPGQRLEWIGWIDLENAETVYDAKFQDRVTITRDTSASTAYMELSSLRSEDTAVYYCARDAYGRYFYDVWGQGTLVTVSS VL: DIVMSQSPDSLAVSLGERATINCKSSQSLLNARTGKNYLAWYQQKPGQPPKLLIYWASTRSSGVPDRFSGSGSGTDFTLTISSLQAEDVAVYYCVQSYFRRTFGGGTKVEIK	–	–	–	0.95	0.91	–	–	–	–	–	–
Antibody No. V010 (ADI-70327) Fab (Fab, V domains shown, Fab by papain digestion of the IgG1) VH: QVQLVQSGAEVKKPGASVKVSCKASGFDIKDYYMHWVRQAPGQRLEWIGWIELENDDTVYDAKFQGRVTITRDTSASTAYMELSSLRSEDTAVYYCARDAYGRYFYDVWGQGTLVTVSS VL: DIVMSQSPDSLAVSLGERATINCKSSQSLLNARTGKNYLAWYQQKPGQPPKLLIYWASTRSSGVPDRFSGSGSGTDFTLTISSLQAEDVAVYYCVQSYFRRTFGGGTKVEIK	4.1	3.4	4.4	1.92	1.91	2	1.9	3.1	0.82	0.39	0.45
